The results in this text go back to PMC7705225, “Hfq-Assisted RsmA Regulation Is Central to Pseudomonas aeruginosa Biofilm Polysaccharide PEL Expression”.

The target in the data set is RsmA (Pseudomonas aeruginosa PAO1, UniProt O69078 1-61). In words: EMSA; without Hfq. As to conditions: protein: recombinant; tags: His6 (C-terminal, RsmA-His6); chain copies: 2; label: none (SYBR Gold stain). (Mobility shift assays separate free from complexed probe on a gel.)
RsmA, sequence (O69078 whole entry): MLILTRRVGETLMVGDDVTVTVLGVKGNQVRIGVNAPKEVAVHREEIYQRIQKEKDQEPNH

B1: truncated vfr RNA (structured_RNA)
RNA: CUUUCGGGACUCGGGCAUGGUAGCUAUUACCCACACACCCAAACUCAAACACCUAGACAAGCUGCUCGCACACUGUCACCGCCGCCGCUACACCGCAAAGAGCACCAUCAUCUAUGCCGGCGAUCGCUGCGAU
For the molecule B1, the binding result was “binds”.
